T1: human scCD3εγ (scCD3εγ_Avi-Bio) (human, biotin on the C-terminal Avi-tag (in vitro, BirA) where the biotinylated form was used)
T1 construct: Used for all SPR and HTRF results on human CD3; also called recombinant human CD3; human CD3
T1 chain: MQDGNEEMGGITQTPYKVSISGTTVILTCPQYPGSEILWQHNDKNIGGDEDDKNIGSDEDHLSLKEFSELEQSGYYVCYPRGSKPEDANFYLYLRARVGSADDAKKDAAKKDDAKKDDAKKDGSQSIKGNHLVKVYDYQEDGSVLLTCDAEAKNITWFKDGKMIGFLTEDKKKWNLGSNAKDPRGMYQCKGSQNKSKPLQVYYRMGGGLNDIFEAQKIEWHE

T2: biotinylated extracellular domain of human CD123 (SEQ ID NO: 88), Fc and Avi tagged (human, UniProt P26951 19-303, biotinylated with BirA-GST (Avi tag))
T2 construct: also called hCD123
T2 sequence: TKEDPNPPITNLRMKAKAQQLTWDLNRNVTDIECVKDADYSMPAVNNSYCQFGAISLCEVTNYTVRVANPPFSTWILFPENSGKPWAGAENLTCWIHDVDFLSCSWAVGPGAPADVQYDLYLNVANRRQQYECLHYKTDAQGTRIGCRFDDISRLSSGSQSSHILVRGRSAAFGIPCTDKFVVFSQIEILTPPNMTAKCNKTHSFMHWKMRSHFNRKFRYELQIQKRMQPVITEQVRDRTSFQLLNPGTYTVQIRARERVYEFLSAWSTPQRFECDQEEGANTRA

T3: extracellular domain of human CD70 (SEQ ID NO: 89), hCD70-Fc-trimer, ACRO Biosystems (human, UniProt P32970 52-193, chemically biotinylated where the biotinylated form was used)
T3 construct: also called human CD70-Fc-trimer; Bio.CD70
T3 sequence: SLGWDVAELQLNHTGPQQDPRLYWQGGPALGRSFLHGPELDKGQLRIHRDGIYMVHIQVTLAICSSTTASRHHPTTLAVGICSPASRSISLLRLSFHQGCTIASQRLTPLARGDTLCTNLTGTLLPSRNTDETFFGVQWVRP


Experiments:
[1] = biological target: T1, human scCD3εγ (scCD3εγ_Avi-Bio); assay: SPR (ProteOn), DARPin on GLC chip, scCD3εγ as analyte
Method: Similarly, the binding affinities of two purified ankyrin repeat proteins on recombinant human CD3 target were analyzed as described before. Briefly, DARPin® protein #53, DARPin® protein #54 in NaOAc pH 4.5 was coated on a GLC chip (BioRad) to a level of around 790-1500 resonance units (RU). The interaction of ankyrin repeat protein and human CD3 was then measured by injecting 300 μl running buffer (PBS, pH 7.4 containing 0.005% Tween 20®) containing serial dilutions of human scCD3εγ (56.4 μM), was diluted in PBST (PBS, pH 7.4 containing 0.005% Tween 20®) and covering a concentration range between 300 nM and 19 nM for multi-trace SPR measurements, followed by a running buffer flow for at least 10 minutes at a constant flow rate of 60 μl/min (off-rate measurement).
The regeneration was performed using 30 μl of 10 mM Glycine pH 2. The signals (i.e. resonance unit (RU) values) of the interspots and a reference injection (i.e. injection of running buffer only) were subtracted from the RU traces obtained after injection of CD3 (double-referencing). Binding parameters (KD, on-rate, off-rate) against CD3 were determined by using a standard Langmuir fit model.

[2] = biological target: T4, biotinylated extracellular domain of human CD33 (SEQ ID NO: 87), Fc and Avi tagged (human, UniProt P20138 18-259, biotinylated with BirA-GST (Avi tag)); assay: SPR (ProteOn XPR36), target on GLC chip, DARPin as analyte
T4 construct: also called hCD33; human target hCD33

[3] = biological target: T2, biotinylated extracellular domain of …; assay: as above
[4] = biological target: T3, extracellular domain of human CD70 (SEQ …); assay: as above
human serum albumin = biological target: T5, human serum albumin (human, UniProt P02768 25-609); assay: as above
T5 construct: also called HSA; SA
T5 sequence (P02768 25-609 limits assumed): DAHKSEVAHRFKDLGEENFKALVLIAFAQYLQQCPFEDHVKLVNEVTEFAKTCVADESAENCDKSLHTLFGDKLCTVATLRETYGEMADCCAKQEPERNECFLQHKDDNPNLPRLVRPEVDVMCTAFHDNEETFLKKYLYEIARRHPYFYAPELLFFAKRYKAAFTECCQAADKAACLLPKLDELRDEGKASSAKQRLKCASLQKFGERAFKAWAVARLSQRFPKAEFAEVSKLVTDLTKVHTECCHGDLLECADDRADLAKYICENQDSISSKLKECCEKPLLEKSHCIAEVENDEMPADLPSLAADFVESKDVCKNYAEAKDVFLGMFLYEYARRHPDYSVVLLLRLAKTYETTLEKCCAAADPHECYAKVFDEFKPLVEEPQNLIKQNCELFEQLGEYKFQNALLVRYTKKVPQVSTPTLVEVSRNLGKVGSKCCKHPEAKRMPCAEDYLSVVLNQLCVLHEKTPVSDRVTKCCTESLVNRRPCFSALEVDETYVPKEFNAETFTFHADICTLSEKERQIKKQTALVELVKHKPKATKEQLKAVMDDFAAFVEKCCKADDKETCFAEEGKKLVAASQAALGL

T4 sequence (P20138 18-259 R69G): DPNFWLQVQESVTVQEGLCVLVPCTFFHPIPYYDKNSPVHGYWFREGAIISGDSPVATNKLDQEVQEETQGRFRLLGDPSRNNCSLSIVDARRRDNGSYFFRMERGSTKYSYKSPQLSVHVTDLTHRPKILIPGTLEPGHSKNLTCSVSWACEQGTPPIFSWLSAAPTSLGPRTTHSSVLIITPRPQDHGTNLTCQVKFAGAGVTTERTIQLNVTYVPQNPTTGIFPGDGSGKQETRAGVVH

Row | Kd [1] | koff [1] | kon [1] | Kd [2] | Kd [3] | Kd [4] | Kd (human serum albumin) | Binder
1 | 139 nM | 0.0065 s⁻¹ | 48000 M⁻¹ s⁻¹ | 12 nM | 8 nM | 0.7 nM | 24 nM | DARPin® protein #53 (designed binder, HSA-CD70-CD123-CD33-CD3) MRGSHHHHHHDLGKKLLEAARAGQDDEVRELLKAGADVNAKDYFSHTPLHLAARNGHLKIVEVLLKAGADVNAKDFAGKTPLHLAAADGHLEIVEVLLKAGADVNAQDIFGKTPADIAADAGHEDIAEVLQKAAGSPTPTPTTPTPTPTTPTPTPTGSDLGYKLLQAAYDGQLDEVRILLKAGADVNAKDSRGQTPLHYAASIGHLEIVEVLLKAGADVNAKDDHGWTPLHLAAWSGHLEIVEVLLKAGADVNAQDQEGTTPADLAAVQGHQDIAEVLQKAAGSPTPTPTTPTPTPTTPTPTPTGSDLGKKLLEAALEGQLDEVRELLKAGADVNAKDQEGYTPLHLAAALGHLEIVEVLLKAGADVNAKDSIGRTPLHLAAYKGHLEIVEVLLKAGADVNAQDLLGETPADLAAEQGHQDIAEVLQKAAGSPTPTPTTPTPTPTTPTPTPTGSDLGVKLLRAAVHGQLDEVRILLKAGADVNAKDTDGETPLHYAAQFGHLEIVEVLLKAGADVNAKDAYGATPLHWAAWHGHLEIVEVLLKAGADVNAQDVSGATPADLAAKVGHQDIAEVLQKAAGSPTPTPTTPTPTPTTPTPTPTGSDLGQKLLEAAWAGQDDEVRELLKAGADVNAKNSRGWTPLHTAAQTGHLEIFEVLLKAGADVNAKDDKGVTPLHLAAALGHLEIVEVLLKAGADVNAQDSWGTTPADLAAKYGHEDIAEVLQKAA
2 | 129 nM | 0.0067 s⁻¹ | 52000 M⁻¹ s⁻¹ | 8.2 nM | 33 nM | 0.61 nM | 1.2 nM | DARPin® protein #54 (designed binder, HSA-HSA-CD70-CD123-CD33-CD3) MRGSHHHHHHDLGKKLLEAARAGQDDEVRELLKAGADVNAKDYFSHTPLHLAARNGHLKIVEVLLKAGADVNAKDFAGKTPLHLAAADGHLEIVEVLLKAGADVNAQDIFGKTPADIAADAGHEDIAEVLQKAAGSPTPTPTTPTPTPTTPTPTPTGSDLGKKLLEAARAGQDDEVRELLKAGADVNAKDYFSHTPLHLAARNGHLKIVEVLLKAGADVNAKDFAGKTPLHLAAADGHLEIVEVLLKAGADVNAQDIFGKTPADIAADAGHEDIAEVLQKAAGSPTPTPTTPTPTPTTPTPTPTGSDLGYKLLQAAYDGQLDEVRILLKAGADVNAKDSRGQTPLHYAASIGHLEIVEVLLKAGADVNAKDDHGWTPLHLAAWSGHLEIVEVLLKAGADVNAQDQEGTTPADLAAVQGHQDIAEVLQKAAGSPTPTPTTPTPTPTTPTPTPTGSDLGKKLLEAALEGQLDEVRELLKAGADVNAKDQEGYTPLHLAAALGHLEIVEVLLKAGADVNAKDSIGRTPLHLAAYKGHLEIVEVLLKAGADVNAQDLLGETPADLAAEQGHQDIAEVLQKAAGSPTPTPTTPTPTPTTPTPTPTGSDLGVKLLRAAVHGQLDEVRILLKAGADVNAKDTDGETPLHYAAQFGHLEIVEVLLKAGADVNAKDAYGATPLHWAAWHGHLEIVEVLLKAGADVNAQDVSGATPADLAAKVGHQDIAEVLQKAAGSPTPTPTTPTPTPTTPTPTPTGSDLGQKLLEAAWAGQDDEVRELLKAGADVNAKNSRGWTPLHTAAQTGHLEIFEVLLKAGADVNAKDDKGVTPLHLAAALGHLEIVEVLLKAGADVNAQDSWGTTPADLAAKYGHEDIAEVLQKAA

Reference: US20240254229A1 (Molecular Partners, published 2024)
